This note sets out measurements from paper PMC13436963.

Assay [1] addresses EGFP-tagged full-length Drosophila Notch [Drosophila melanogaster]. In words: luciferase-coupled co-immunoprecipitation (GFP-trap). Conditions: S2 cells, Notch-GFP WT, n=4, parent: 1, read off a plot.
Assay [2] addresses T1, Drosophila Notch LNR domain F1563A fused to split firefly luciferase fragments, P07207.
T1 chain: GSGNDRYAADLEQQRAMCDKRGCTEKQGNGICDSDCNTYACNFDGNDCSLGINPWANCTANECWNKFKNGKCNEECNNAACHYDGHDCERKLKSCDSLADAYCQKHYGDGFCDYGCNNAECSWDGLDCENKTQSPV
In words: split-luciferase complementation assay. Particulars: chain shown with the change; S2 cells; bar labelled 'F1563A + F1563A'; n=5; parent: 1.0; read off a plot.

Assay [3] concerns the target T2, Drosophila Notch LNR domain H1570A fused to split firefly luciferase fragments, P07207.
T2 chain: T1 chain with A99F, H106A
As to the kind of experiment: split-luciferase complementation assay. Particulars: chain shown with the change; S2 cells; bar labelled 'H1570A + H1570A'; n=5; parent: 1.0; read off a plot.

Substitutions are numbered along the chain they refer to. Names may count otherwise.

“luciferase-tagged Drosophila Notch LNR domain (residues G1465 to V1600) mutant F1563A [Drosophila melanogaster] / EGFP-tagged full-length Drosophila Notch [Drosophila melanogaster] chain 1 F99A”: the ratio to parent in assay [1] (LNR-Luc F1563A) was 1.1.
As to “luciferase-tagged Drosophila Notch LNR domain (residues G1465 to V1600) mutant H1570A [Drosophila melanogaster] / EGFP-tagged full-length Drosophila Notch [Drosophila melanogaster] chain 1 H106A”, the ratio to parent in assay [1] (LNR-Luc H1570A) came to 0.97.

B1: Drosophila Notch LNR domain fused to split firefly luciferase fragments (LNR–NLuc and LNR–CLuc), P07207 F1563A (N-Luc copy); F1563A (C-Luc copy) (protein)
chain: T1 chain
Regarding B1, the ratio to parent in assay [2] worked out at 0.96.

B2: Drosophila Notch LNR domain fused to split firefly luciferase fragments (LNR–NLuc and LNR–CLuc), P07207 H1570A (N-Luc copy); H1570A (C-Luc copy) (protein)
chain: T1 chain with A99F, H106A
In the case of B2, the ratio to parent in assay [3] worked out at 0.87.
